Paper doi:10.1101/2022.05.06.490860 (bioRxiv, 2022)
One block for each molecule: values may come before it.

Legend:
[1] = target: YjoB-NTD (residues 1-159), oligomer form NTD-1 (B. subtilis 168) (UniProt O34703); assay: crystal structure
[2] = target: KatA, dimer form (KatA-2) (B. subtilis) (UniProt P26901); assay: SEC
SEC = target: the molecule itself; assay: SEC
[3] = target: T1, KatA, monomeric form (KatA-1) (B. subtilis, UniProt P26901 1-483); assay: SEC
T1 sequence (looked up): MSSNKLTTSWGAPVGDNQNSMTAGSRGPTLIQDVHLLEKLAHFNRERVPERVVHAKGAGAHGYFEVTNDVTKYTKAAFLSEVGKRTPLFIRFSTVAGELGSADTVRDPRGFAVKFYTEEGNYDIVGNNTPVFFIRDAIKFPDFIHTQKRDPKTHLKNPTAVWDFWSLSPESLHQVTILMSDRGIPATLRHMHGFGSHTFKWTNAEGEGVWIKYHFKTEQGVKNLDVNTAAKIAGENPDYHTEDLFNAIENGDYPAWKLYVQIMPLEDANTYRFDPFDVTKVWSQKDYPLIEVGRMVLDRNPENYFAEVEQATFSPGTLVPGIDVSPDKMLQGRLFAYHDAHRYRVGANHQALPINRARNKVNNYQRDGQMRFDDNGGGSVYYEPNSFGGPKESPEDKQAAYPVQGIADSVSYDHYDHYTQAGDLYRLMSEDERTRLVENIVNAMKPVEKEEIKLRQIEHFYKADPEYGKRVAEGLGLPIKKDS

crystal structure = target: the molecule itself; assay: crystal structure

B1: YjoB-AAA domain (residues 159-423) (domain or fragment, B. subtilis 168, UniProt O34703 159-423, looked up)
chain: RKVTVFTDGDGGTSREQEAIVREVQRSQVIMNPLLKKEIYRSIDQFFHSDKSFYQTYDIPYKRGILLYGPPGNGKTTLVKSIAGSIDAPVAYWQITEFTSSETIEEVFQAARRLAPAVLVIEDIDSMPEDVRSFFLNTLDGATSKEGLFLIGTTNYPEEIDPGLMNRAGRFDRAYEIGLPDEELRLEYMKMRGFGIFLSEGEIKNAAKLTEGFSFAQLGELYVSSALQWHQEGNHHIETMVKDMTGEQRKSQRGSWMERNKVGFH
- stoichiometry N (SEC): 6

B2: Bacillus subtilis YjoB (residues 1-423) (natural protein, B. subtilis 168, UniProt O34703 1-423, looked up)
chain: MTNIPFIYQYEEKENERAAAGYGTFGYLITRIEETLYDQYGVFYELYASDDPNTEYWELLVEDVRSGSLEPEHVAYIFEKLEKKTFAYDEDEKEPDYTVHKSIRNSVYAYPEKGVAFARIPYFQDGSIMSFDCLFAVNDEKMRAFLEGVRPRLWEKSKRKVTVFTDGDGGTSREQEAIVREVQRSQVIMNPLLKKEIYRSIDQFFHSDKSFYQTYDIPYKRGILLYGPPGNGKTTLVKSIAGSIDAPVAYWQITEFTSSETIEEVFQAARRLAPAVLVIEDIDSMPEDVRSFFLNTLDGATSKEGLFLIGTTNYPEEIDPGLMNRAGRFDRAYEIGLPDEELRLEYMKMRGFGIFLSEGEIKNAAKLTEGFSFAQLGELYVSSALQWHQEGNHHIETMVKDMTGEQRKSQRGSWMERNKVGFH
- binding result [3]: binds
- stoichiometry N (crystal structure): 6

Now from value to molecule:

- stoichiometry N [1]: 12
Molecule: YjoB-NTD (residues 1-159), oligomer form NTD-1 (from UniProt O34703 1-159) (domain or fragment)

- stoichiometry N [2]: 2
Molecule: KatA, dimer form (KatA-2) (from UniProt P26901 1-483) (enzyme)
